According to paper PMC9482650, “Quantitative fragmentomics allow affinity mapping of interactomes” (Nature Communications, 2022):

Key:
Experiment in all cases: holdup assay
Design in all cases: key: below the threshold = too weak to quantify, mostly under pKd 3.1 to 4
MAST2, Q6P0Q8 = molecular target: MAST2, Q6P0Q8
APBA2_1, Q99767 = molecular target: T1, APBA2_1, Q99767
T1 sequence (Q99767 563-664, limits assumed, looked up): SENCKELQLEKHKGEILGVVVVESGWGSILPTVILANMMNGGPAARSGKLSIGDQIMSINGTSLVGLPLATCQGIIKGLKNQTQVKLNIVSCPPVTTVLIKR

NHERF3_4, Q5T2W1 = molecular target: T2, NHERF3_4, Q5T2W1
T2 sequence (Q5T2W1 373-468, limits assumed, looked up): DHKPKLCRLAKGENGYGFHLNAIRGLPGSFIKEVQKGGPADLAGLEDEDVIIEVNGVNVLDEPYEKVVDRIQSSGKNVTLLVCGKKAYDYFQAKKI

HTRA2, O43464 = molecular target: HTRA2, O43464
GRIP2_5, Q9C0E4 = molecular target: GRIP2_5, Q9C0E4
IL16_1, Q14005 = molecular target: IL16_1, Q14005
GRIP2_4, Q9C0E4 = molecular target: GRIP2_4, Q9C0E4
SIPA1L2, Q9P2F8 = molecular target: T3, SIPA1L2, Q9P2F8
T3 sequence (Q9P2F8 945-1036, limits assumed, looked up): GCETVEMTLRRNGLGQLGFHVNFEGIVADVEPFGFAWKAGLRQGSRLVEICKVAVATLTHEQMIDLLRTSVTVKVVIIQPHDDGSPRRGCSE

MAGI1_2, Q96QZ7 = molecular target: MAGI1_2, Q96QZ7
DFNB31_1, Q9P202 = molecular target: T4, DFNB31_1, Q9P202
T4 sequence (Q9P202 135-233, limits assumed, looked up): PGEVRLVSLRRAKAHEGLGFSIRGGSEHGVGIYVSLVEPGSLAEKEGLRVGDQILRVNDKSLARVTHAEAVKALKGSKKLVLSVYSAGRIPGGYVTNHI

SHANK1, Q9Y566 = molecular target: T5, SHANK1, Q9Y566
T5 sequence (Q9Y566 658-767, limits assumed, looked up): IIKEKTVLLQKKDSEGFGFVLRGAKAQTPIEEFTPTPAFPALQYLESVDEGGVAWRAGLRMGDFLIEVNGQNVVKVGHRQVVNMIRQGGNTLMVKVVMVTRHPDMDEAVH

PDLIM1, O00151 = molecular target: PDLIM1, O00151
TJP1_3, Q07157 = molecular target: TJP1_3, Q07157
PTPN13_1, Q12923 = molecular target: T6, PTPN13_1, Q12923
T6 sequence (Q12923 1088-1188, limits assumed, looked up): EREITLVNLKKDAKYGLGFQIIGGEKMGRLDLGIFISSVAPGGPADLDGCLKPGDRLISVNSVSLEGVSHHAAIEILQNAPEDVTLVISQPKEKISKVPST

ARHGEF12, Q9NZN5-2 = molecular target: ARHGEF12, Q9NZN5-2
PDZD7_3, Q9H5P4 = molecular target: T7, PDZD7_3, Q9H5P4
T7 sequence (Q9H5P4 857-944, limits assumed, looked up): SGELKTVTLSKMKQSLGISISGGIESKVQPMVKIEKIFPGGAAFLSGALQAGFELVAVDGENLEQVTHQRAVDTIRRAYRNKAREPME

APBA2_2, Q99767 = molecular target: T8, APBA2_2, Q99767
T8 sequence (Q99767 654-744, limits assumed, looked up): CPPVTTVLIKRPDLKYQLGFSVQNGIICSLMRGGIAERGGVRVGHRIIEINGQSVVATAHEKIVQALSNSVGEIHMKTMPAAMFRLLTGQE

DLG4_2, P78352 = molecular target: DLG4_2, P78352
DVL3, Q92997 = molecular target: T9, DVL3, Q92997
T9 sequence (Q92997 244-331, limits assumed, looked up): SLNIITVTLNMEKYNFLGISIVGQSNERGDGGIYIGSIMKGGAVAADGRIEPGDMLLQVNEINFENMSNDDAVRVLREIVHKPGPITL

DLG3_1, Q92796 = molecular target: T10, DLG3_1, Q92796
T10 sequence (Q92796 125-227, limits assumed, looked up): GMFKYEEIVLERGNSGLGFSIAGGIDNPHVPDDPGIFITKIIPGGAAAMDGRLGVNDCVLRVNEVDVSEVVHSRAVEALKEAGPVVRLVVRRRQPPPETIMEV

SNTA1, Q13424 = molecular target: T11, SNTA1, Q13424
T11 sequence (Q13424 82-180, limits assumed, looked up): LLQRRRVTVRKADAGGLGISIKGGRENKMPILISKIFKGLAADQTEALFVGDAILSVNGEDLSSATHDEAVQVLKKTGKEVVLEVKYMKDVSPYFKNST

DLG4_1, P78352 = molecular target: DLG4_1, P78352
PTPN3, P26045 = molecular target: PTPN3, P26045
Inadl_9, Q8NI35 = molecular target: Inadl_9, Q8NI35
TJP1_2, Q07157 = molecular target: TJP1_2, Q07157
MAGI2_4, Q86UL8 = molecular target: MAGI2_4, Q86UL8
[1] = plain residues with an end cap or a label only (N-terminal biotin on a linker: ttds)
[2] = plain residues with an end cap or a label only (N-terminal biotin on a linker: ahx)

Sequence of IL16_1, Q14005 (Q14005 210-306): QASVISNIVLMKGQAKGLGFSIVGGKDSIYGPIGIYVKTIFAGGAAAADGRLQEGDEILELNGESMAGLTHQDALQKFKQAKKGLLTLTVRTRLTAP
Sequence of MAGI1_2, Q96QZ7 (Q96QZ7 456-580): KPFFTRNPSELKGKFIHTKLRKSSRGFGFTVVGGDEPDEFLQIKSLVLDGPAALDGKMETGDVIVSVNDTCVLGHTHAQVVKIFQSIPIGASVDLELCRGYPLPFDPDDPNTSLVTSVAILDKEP
Sequence of PTPN3, P26045 (P26045 505-587): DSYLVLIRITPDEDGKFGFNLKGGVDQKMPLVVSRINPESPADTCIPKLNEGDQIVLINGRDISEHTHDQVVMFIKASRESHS
Sequence of DLG4_2, P78352 (P78352 155-259): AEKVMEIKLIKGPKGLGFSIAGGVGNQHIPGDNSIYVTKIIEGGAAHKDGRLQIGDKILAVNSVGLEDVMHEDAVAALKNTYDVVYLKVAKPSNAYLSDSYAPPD
Sequence of HTRA2, O43464 (O43464 355-458): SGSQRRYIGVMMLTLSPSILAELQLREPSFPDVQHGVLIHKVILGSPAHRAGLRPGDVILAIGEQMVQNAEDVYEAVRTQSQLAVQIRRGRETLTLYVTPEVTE
Sequence of MAGI2_4, Q86UL8 (Q86UL8 772-865): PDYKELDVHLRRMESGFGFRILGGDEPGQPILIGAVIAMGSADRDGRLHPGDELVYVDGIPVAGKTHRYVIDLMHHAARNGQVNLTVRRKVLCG
Sequence of TJP1_3, Q07157 (Q07157 416-512): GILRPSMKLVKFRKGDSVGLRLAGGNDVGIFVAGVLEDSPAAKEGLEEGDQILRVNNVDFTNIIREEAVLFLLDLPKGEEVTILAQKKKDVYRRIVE
Sequence of GRIP2_5, Q9C0E4 (Q9C0E4 544-642): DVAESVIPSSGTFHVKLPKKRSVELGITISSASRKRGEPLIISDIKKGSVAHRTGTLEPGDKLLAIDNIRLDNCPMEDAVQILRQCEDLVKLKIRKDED
Sequence of MAST2, Q6P0Q8 (Q6P0Q8 1099-1202): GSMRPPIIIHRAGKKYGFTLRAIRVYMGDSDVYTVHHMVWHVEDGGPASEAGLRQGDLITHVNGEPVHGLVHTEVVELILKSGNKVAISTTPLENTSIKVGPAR
Sequence of DLG4_1, P78352 (P78352 62-152): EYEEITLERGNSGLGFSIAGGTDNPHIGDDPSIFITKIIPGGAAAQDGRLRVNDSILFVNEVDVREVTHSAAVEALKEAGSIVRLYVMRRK
Sequence of Inadl_9, Q8NI35 (Q8NI35 1530-1615): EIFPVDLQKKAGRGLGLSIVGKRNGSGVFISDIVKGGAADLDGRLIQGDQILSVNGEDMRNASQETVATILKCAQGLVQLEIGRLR
Sequence of GRIP2_4, Q9C0E4 (Q9C0E4 446-548): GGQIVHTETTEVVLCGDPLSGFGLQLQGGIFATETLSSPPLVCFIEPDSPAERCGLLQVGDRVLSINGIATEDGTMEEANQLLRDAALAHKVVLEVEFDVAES
Sequence of PDLIM1, O00151 (O00151 1-87): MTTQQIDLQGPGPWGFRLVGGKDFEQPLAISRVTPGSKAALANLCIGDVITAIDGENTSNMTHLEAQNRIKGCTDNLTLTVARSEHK
Sequence of TJP1_2, Q07157 (Q07157 181-274): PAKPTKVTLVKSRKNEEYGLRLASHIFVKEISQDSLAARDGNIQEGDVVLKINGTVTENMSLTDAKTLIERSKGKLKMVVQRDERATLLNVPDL
Sequence of ARHGEF12, Q9NZN5-2 (Q9NZN5 other isoform, or with tags, fused parts or gaps): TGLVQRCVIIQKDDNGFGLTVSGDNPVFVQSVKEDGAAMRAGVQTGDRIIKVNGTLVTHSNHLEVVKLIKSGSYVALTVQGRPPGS

In the case of GARVSKETPL [MAPK12, P53778], the pKd (MAST2, Q6P0Q8; [1]) is reported as 4.78, the pKd (APBA2_1, Q99767; [1]) is reported as “below the threshold” and the pKd (NHERF3_4, Q5T2W1; [1]) is reported as 3.72. For the same binder, the pKd (HTRA2, O43464; [1]) was “below the threshold”, the pKd (GRIP2_5, Q9C0E4; [1]) was “below the threshold” and the pKd (IL16_1, Q14005; [1]) was “below the threshold”. The pKd (GRIP2_4, Q9C0E4; [1]) was “below the threshold”, the pKd (SIPA1L2, Q9P2F8; [1]) was “below the threshold” and the pKd (MAGI1_2, Q96QZ7; [1]) was 3.76. The pKd (DFNB31_1, Q9P202; [1]) was 3.95, the pKd (SHANK1, Q9Y566; [1]) was 3.56 and the pKd (PDLIM1, O00151; [1]) was “below the threshold”. The pKd (TJP1_3, Q07157; [1]) was “below the threshold”, the pKd (PTPN13_1, Q12923; [1]) was “below the threshold” and the pKd (ARHGEF12, Q9NZN5-2; [1]) was 4.34. For the same binder, the pKd (PDZD7_3, Q9H5P4; [1]) was 3.86, the pKd (APBA2_2, Q99767; [1]) was “below the threshold” and the pKd (DLG4_2, P78352; [1]) was 4.45. The pKd (DVL3, Q92997; [1]) was “below the threshold”, the pKd (DLG3_1, Q92796; [1]) was 3.49 and the pKd (SNTA1, Q13424; [1]) was 4.49. The pKd (DLG4_1, P78352; [1]) was “below the threshold”, the pKd (PTPN3, P26045; [1]) was 4.93 and the pKd (Inadl_9, Q8NI35; [1]) was “below the threshold”. The pKd (TJP1_2, Q07157; [1]) was “below the threshold” and the pKd (MAGI2_4, Q86UL8; [1]) was “below the threshold”.

KQVVPFSSSV [GDA, Q9Y2T3] was tested, and the pKd (MAST2, Q6P0Q8; [1]) was 4.83, the pKd (APBA2_1, Q99767; [1]) was “below the threshold” and the pKd (NHERF3_4, Q5T2W1; [1]) was “below the threshold”. For the same binder, the pKd (HTRA2, O43464; [1]) was “below the threshold”, the pKd (GRIP2_5, Q9C0E4; [1]) was “below the threshold” and the pKd (IL16_1, Q14005; [1]) was 3.86. The pKd (GRIP2_4, Q9C0E4; [1]) was “below the threshold”, the pKd (SIPA1L2, Q9P2F8; [1]) was “below the threshold” and the pKd (MAGI1_2, Q96QZ7; [1]) was “below the threshold”. For the same binder, the pKd (DFNB31_1, Q9P202; [1]) was “below the threshold”, the pKd (SHANK1, Q9Y566; [1]) was 3.49 and the pKd (PDLIM1, O00151; [1]) was “below the threshold”. The pKd (TJP1_3, Q07157; [1]) was “below the threshold”, the pKd (PTPN13_1, Q12923; [1]) was “below the threshold” and the pKd (ARHGEF12, Q9NZN5-2; [1]) was 3.98. For the same binder, the pKd (PDZD7_3, Q9H5P4; [1]) was 3.59, the pKd (APBA2_2, Q99767; [1]) was “below the threshold” and the pKd (DLG4_2, P78352; [1]) was 4.42. For the same binder, the pKd (DVL3, Q92997; [1]) was “below the threshold”, the pKd (DLG3_1, Q92796; [1]) was “below the threshold” and the pKd (SNTA1, Q13424; [1]) was “below the threshold”. For the same binder, the pKd (DLG4_1, P78352; [1]) was 3.83, the pKd (PTPN3, P26045; [1]) was 4.24 and the pKd (Inadl_9, Q8NI35; [1]) was 3.52. For the same binder, the pKd (TJP1_2, Q07157; [1]) was “below the threshold” and the pKd (MAGI2_4, Q86UL8; [1]) was 3.69.

For HSATSVHTSV [MTMR1, Q13613], the pKd (MAST2, Q6P0Q8; [2]) was 4.38, the pKd (APBA2_1, Q99767; [2]) was “below the threshold” and the pKd (NHERF3_4, Q5T2W1; [2]) was “below the threshold”. For the same binder, the pKd (HTRA2, O43464; [2]) was “below the threshold”, the pKd (GRIP2_5, Q9C0E4; [2]) was “below the threshold” and the pKd (IL16_1, Q14005; [2]) was “below the threshold”. The pKd (GRIP2_4, Q9C0E4; [2]) was “below the threshold”, the pKd (SIPA1L2, Q9P2F8; [2]) was “below the threshold” and the pKd (MAGI1_2, Q96QZ7; [2]) was 3.52. For the same binder, the pKd (DFNB31_1, Q9P202; [2]) was 3.66, the pKd (SHANK1, Q9Y566; [2]) was “below the threshold” and the pKd (PDLIM1, O00151; [2]) was 3.72. For the same binder, the pKd (TJP1_3, Q07157; [2]) was “below the threshold”, the pKd (PTPN13_1, Q12923; [2]) was “below the threshold” and the pKd (ARHGEF12, Q9NZN5-2; [2]) was “below the threshold”. The pKd (PDZD7_3, Q9H5P4; [2]) was 3.87, the pKd (APBA2_2, Q99767; [2]) was “below the threshold” and the pKd (DLG4_2, P78352; [2]) was 4.7. For the same binder, the pKd (DVL3, Q92997; [2]) was “below the threshold”, the pKd (DLG3_1, Q92796; [2]) was 3.9 and the pKd (SNTA1, Q13424; [2]) was 3.65. The pKd (DLG4_1, P78352; [2]) was 4.21, the pKd (PTPN3, P26045; [2]) was 4.16 and the pKd (Inadl_9, Q8NI35; [2]) was 3.57. For the same binder, the pKd (TJP1_2, Q07157; [2]) was “below the threshold” and the pKd (MAGI2_4, Q86UL8; [2]) was “below the threshold”.
